Reference: the supplement of paper PMC10567573

B1: PWWP2B (parent)
chain: TIRLRPRQVLCEKCKSTLSPPEAS

Variants of: B1
Assay: protein stability index of a GFP-peptide fusion (GPS, HEK-293T) (PSI 1-6); higher = more stable
Conditions: c terminus: a fixed tail appended
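Also: lentivirally expressed fusions sorted by FACS into six bins by GFP to DsRed ratio, PSI derived from sequencing read proportions per bin multiplied by bin number.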

Q: With TIRLRPCQVLCEKCKSTLSPPEAS as the variant, how does the protein stability index read?
A: 3.2

Q: For TIRLRPYQVLCEKCKSTLSPPEAS, which protein stability index is on record?
A: 2.69

Q: Which protein stability index does the source give for TIRLRPWQVLCEKCKSTLSPPEAS here?
A: 2.16

Q: With TIRLRPIQVLCEKCKSTLSPPEAS as the variant, how does the protein stability index read?
A: 2.9

Q: With TIRLRPSQVLCEKCKSTLSPPEAS as the variant, how does the protein stability index read?
A: 3.01

Q: For TIRLRPQQVLCEKCKSTLSPPEAS, which protein stability index is on record?
A: 3.38

Q: For TIRLRPTQVLCEKCKSTLSPPEAS, which protein stability index is on record?
A: 3.31

Q: With TIRLRPAQVLCEKCKSTLSPPEAS as the variant, how does the protein stability index read?
A: 3.48

Q: Which protein stability index does the source give for TIRLRPGQVLCEKCKSTLSPPEAS here?
A: 3.12

Q: Which protein stability index does the source give for TIRLRPPQVLCEKCKSTLSPPEAS here?
A: 3.33

Q: Which protein stability index does the source give for TIRLRPDQVLCEKCKSTLSPPEAS here?
A: 3.85

Q: With TIRLRPEQVLCEKCKSTLSPPEAS as the variant, how does the protein stability index read?
A: 3.9

Q: Which protein stability index does the source give for TIRLRPNQVLCEKCKSTLSPPEAS here?
A: 2.87

Q: For TIRLRPMQVLCEKCKSTLSPPEAS, which protein stability index is on record?
A: 2.92

Q: Which protein stability index does the source give for TIRLRPRQVDCEKCKSTLSPPEAS here?
A: 3.9

Q: For TIRLRPRQVACEKCKSTLSPPEAS, which protein stability index is on record?
A: 3.44

Q: With TIRLRPRQVCCEKCKSTLSPPEAS as the variant, how does the protein stability index read?
A: 3.21

Q: For TIRLRPRQVECEKCKSTLSPPEAS, which protein stability index is on record?
A: 3.35

Q: For TIRLFPRQVLCEKCKSTLSPPEAS, which protein stability index is on record?
A: 3.19

Q: Which protein stability index does the source give for TIRLIPRQVLCEKCKSTLSPPEAS here?
A: 2.93

Q: With TIRLDPRQVLCEKCKSTLSPPEAS as the variant, how does the protein stability index read?
A: 3.73

Q: With TIRLLPRQVLCEKCKSTLSPPEAS as the variant, how does the protein stability index read?
A: 2.91

Q: For TIRLAPRQVLCEKCKSTLSPPEAS, which protein stability index is on record?
A: 3.34

Q: For TIRLNPRQVLCEKCKSTLSPPEAS, which protein stability index is on record?
A: 2.78

Q: For TIRLQPRQVLCEKCKSTLSPPEAS, which protein stability index is on record?
A: 3

Q: With TIRLGPRQVLCEKCKSTLSPPEAS as the variant, how does the protein stability index read?
A: 3.37

Q: With TIRLYPRQVLCEKCKSTLSPPEAS as the variant, how does the protein stability index read?
A: 2.73

Q: With TIRLPPRQVLCEKCKSTLSPPEAS as the variant, how does the protein stability index read?
A: 3.54

Q: Which protein stability index does the source give for TIRLKPRQVLCEKCKSTLSPPEAS here?
A: 2.96

Q: For TIRLSPRQVLCEKCKSTLSPPEAS, which protein stability index is on record?
A: 3.43

Q: With TIRLCPRQVLCEKCKSTLSPPEAS as the variant, how does the protein stability index read?
A: 2.77

Q: Which protein stability index does the source give for TIRLEPRQVLCEKCKSTLSPPEAS here?
A: 4.03

Q: Which protein stability index does the source give for TIRLVPRQVLCEKCKSTLSPPEAS here?
A: 3.52

Q: Which protein stability index does the source give for TIRLTPRQVLCEKCKSTLSPPEAS here?
A: 3.1

Q: For TIRLMPRQVLCEKCKSTLSPPEAS, which protein stability index is on record?
A: 3.22

Q: With TIRLHPRQVLCEKCKSTLSPPEAS as the variant, how does the protein stability index read?
A: 3.16

Q: For TIRLWPRQVLCEKCKSTLSPPEAS, which protein stability index is on record?
A: 2.9

Q: For TIRLRPRKVLCEKCKSTLSPPEAS, which protein stability index is on record?
A: 2.99

Q: With TIRLRPRVVLCEKCKSTLSPPEAS as the variant, how does the protein stability index read?
A: 2.35

Q: With TIRLRPRPVLCEKCKSTLSPPEAS as the variant, how does the protein stability index read?
A: 3.06

Q: With TIRLRPRGVLCEKCKSTLSPPEAS as the variant, how does the protein stability index read?
A: 2.96

Q: For TIRLRPRIVLCEKCKSTLSPPEAS, which protein stability index is on record?
A: 2.64

Q: For TIRLRPREVLCEKCKSTLSPPEAS, which protein stability index is on record?
A: 3.33

Q: Which protein stability index does the source give for TIRLRPRTVLCEKCKSTLSPPEAS here?
A: 2.76

Q: With TIRLRPRYVLCEKCKSTLSPPEAS as the variant, how does the protein stability index read?
A: 2.74

Q: Which protein stability index does the source give for TIRLRPRAVLCEKCKSTLSPPEAS here?
A: 2.85

Q: With TIRLRPRFVLCEKCKSTLSPPEAS as the variant, how does the protein stability index read?
A: 2.24

Q: For TIRLRPRMVLCEKCKSTLSPPEAS, which protein stability index is on record?
A: 2.92

Q: For TIRLRPRCVLCEKCKSTLSPPEAS, which protein stability index is on record?
A: 2.09

Q: With TIRLRPRSVLCEKCKSTLSPPEAS as the variant, how does the protein stability index read?
A: 3.05

Q: With TIRLRPRDVLCEKCKSTLSPPEAS as the variant, how does the protein stability index read?
A: 3.49

Q: For TIRLRPRWVLCEKCKSTLSPPEAS, which protein stability index is on record?
A: 2.19

Q: For TIRLRPRRVLCEKCKSTLSPPEAS, which protein stability index is on record?
A: 2.95

Q: For TIRLRPRLVLCEKCKSTLSPPEAS, which protein stability index is on record?
A: 2.58

Q: With TIRLRPRHVLCEKCKSTLSPPEAS as the variant, how does the protein stability index read?
A: 2.77

Q: For TIRLRPRNVLCEKCKSTLSPPEAS, which protein stability index is on record?
A: 2.97

Q: Which protein stability index does the source give for TIRLRCRQVLCEKCKSTLSPPEAS here?
A: 2.46

Q: For TIRLRLRQVLCEKCKSTLSPPEAS, which protein stability index is on record?
A: 2.04

Q: With TIRLRHRQVLCEKCKSTLSPPEAS as the variant, how does the protein stability index read?
A: 2.77

Q: For TIRLRSRQVLCEKCKSTLSPPEAS, which protein stability index is on record?
A: 3.1

Q: With TIRLRDRQVLCEKCKSTLSPPEAS as the variant, how does the protein stability index read?
A: 3.61

Q: With TIRLRARQVLCEKCKSTLSPPEAS as the variant, how does the protein stability index read?
A: 2.76

Q: Which protein stability index does the source give for TIRLRRRQVLCEKCKSTLSPPEAS here?
A: 2.52

Q: With TIRLRIRQVLCEKCKSTLSPPEAS as the variant, how does the protein stability index read?
A: 1.62

Q: Which protein stability index does the source give for TIRLRERQVLCEKCKSTLSPPEAS here?
A: 3.8

Q: Which protein stability index does the source give for TIRLRKRQVLCEKCKSTLSPPEAS here?
A: 2.82

Q: For TIRLRFRQVLCEKCKSTLSPPEAS, which protein stability index is on record?
A: 2.05

Q: Which protein stability index does the source give for TIRLRYRQVLCEKCKSTLSPPEAS here?
A: 2.04

Q: With TIRLRQRQVLCEKCKSTLSPPEAS as the variant, how does the protein stability index read?
A: 3.02

Q: With TIRLRNRQVLCEKCKSTLSPPEAS as the variant, how does the protein stability index read?
A: 2.53

Q: With TIRLRMRQVLCEKCKSTLSPPEAS as the variant, how does the protein stability index read?
A: 2.37

Q: Which protein stability index does the source give for TIRLRWRQVLCEKCKSTLSPPEAS here?
A: 2.05

Q: For TIRLRGRQVLCEKCKSTLSPPEAS, which protein stability index is on record?
A: 3.25

Q: For TIRLRVRQVLCEKCKSTLSPPEAS, which protein stability index is on record?
A: 2.19

Q: With TIRLRTRQVLCEKCKSTLSPPEAS as the variant, how does the protein stability index read?
A: 3.09

Q: For TIRHRPRQVLCEKCKSTLSPPEAS, which protein stability index is on record?
A: 3.23

Q: Which protein stability index does the source give for TIRDRPRQVLCEKCKSTLSPPEAS here?
A: 4.18

Q: With TIRGRPRQVLCEKCKSTLSPPEAS as the variant, how does the protein stability index read?
A: 3.63

Q: With TIRFRPRQVLCEKCKSTLSPPEAS as the variant, how does the protein stability index read?
A: 2.77

Q: For TIRVRPRQVLCEKCKSTLSPPEAS, which protein stability index is on record?
A: 3.22

Q: For TIRPRPRQVLCEKCKSTLSPPEAS, which protein stability index is on record?
A: 3.45

Q: Which protein stability index does the source give for TIRNRPRQVLCEKCKSTLSPPEAS here?
A: 3.58

Q: For TIRMRPRQVLCEKCKSTLSPPEAS, which protein stability index is on record?
A: 3.32

Q: Which protein stability index does the source give for TIRCRPRQVLCEKCKSTLSPPEAS here?
A: 3.45

Q: For TIRSRPRQVLCEKCKSTLSPPEAS, which protein stability index is on record?
A: 3.6

Q: For TIRERPRQVLCEKCKSTLSPPEAS, which protein stability index is on record?
A: 3.79

Q: With TIRARPRQVLCEKCKSTLSPPEAS as the variant, how does the protein stability index read?
A: 2.99

Q: With TIRKRPRQVLCEKCKSTLSPPEAS as the variant, how does the protein stability index read?
A: 3.58

Q: For TIRQRPRQVLCEKCKSTLSPPEAS, which protein stability index is on record?
A: 3.04

Q: With TIRIRPRQVLCEKCKSTLSPPEAS as the variant, how does the protein stability index read?
A: 2.79

Q: With TIRRRPRQVLCEKCKSTLSPPEAS as the variant, how does the protein stability index read?
A: 3.03

Q: For TIRYRPRQVLCEKCKSTLSPPEAS, which protein stability index is on record?
A: 2.87

Q: Which protein stability index does the source give for TIRTRPRQVLCEKCKSTLSPPEAS here?
A: 3.85

Q: With TIRWRPRQVLCEKCKSTLSPPEAS as the variant, how does the protein stability index read?
A: 2.31
